In the supplement of paper PMC5998384:

Experiments:
HeLa Kyoto [1] = assay: solubility in G1/S (NP-40 vs SDS abundance) (log2 ratio); higher = more soluble; details: cell cycle stage: G1/S
HeLa Kyoto [2] = assay: melting temperature (median over replicates), in situ; higher = more thermally stable
HeLa Kyoto [3] = assay: solubility change mitosis vs G1/S (difference of NP-40 vs SDS log2 ratios) (log2 ratio difference); higher = more soluble in mitosis
HeLa Kyoto [4] = assay: thermal stability score vs G1/S (z-score of summed log2 fold changes over temperatures); higher = more thermally stable than in G1/S
[5] = cell cycle stage: early G1 (4.5 h after nocodazole release)
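Throughout, for melting temperature (median over replicates), in situ: HeLa Kyoto cells synchronized by double thymidine or nocodazole block, proteins quantified by TMT10plex mass spectrometry, three independent biological replicates.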
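Throughout, for solubility change mitosis vs G1/S (difference of NP-40 vs SDS log2 ratios): synchronized HeLa Kyoto cells (double thymidine block for G1/S, nocodazole release for mitosis), protein amounts in NP-40 versus SDS lysates quantified by mass spectrometry, three biological replicates.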
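Throughout, for solubility in G1/S (NP-40 vs SDS abundance): HeLa Kyoto cells arrested at G1/S by double thymidine block, proteins quantified by TMT10plex mass spectrometry in mild NP-40 versus SDS extracts, three biological replicates.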
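Throughout, for thermal stability score vs G1/S (z-score of summed log2 fold changes over temperatures): synchronized HeLa Kyoto cells, proteins quantified by TMT10plex mass spectrometry, three biological replicates, mitosis taken 0.5 h after nocodazole release, G1/S directly after double thymidine block.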

Sequence	solubility in G1/S (log2) (HeLa Kyoto [1])	melting temperature (HeLa Kyoto [2]; cell cycle stage: G1/S)	melting temperature (HeLa Kyoto [2]; cell cycle stage: mitosis)	solubility change mitosis (log2) (HeLa Kyoto [3])	thermal stability score (HeLa Kyoto [4]; [5])	thermal stability score (HeLa Kyoto [4]; cell cycle stage: mitosis)
MENGYTYEDYKNTAEWLLSHTKHRPQVAIICGSGLGGLTDKLTQAQIFDYGEIPNFPRSTVPGHAGRLVFGFLNGRACVMMQGRFHMYEGYPLWKVTFPVRVFHLLGVDTLVVTNAAGGLNPKFEVGDIMLIRDHINLPGFSGQNPLRGPNDERFGDRFPAMSDAYDRTMRQRALSTWKQMGEQRELQEGTYVMVAGPSFETVAECRVLQKLGADAVGMSTVPEVIVARHCGLRVFGFSLITNKVIMDYESLEKANHEEVLAAGKQAAQKLEQFVSILMASIPLPDKAS [PNP]	0.301	60.3 °C	60.2 °C	-0.144	-0.982	-1.39
MENSQLCKLFIGGLNVQTSESGLRGHFEAFGTLTDCVVVVNPQTKRSRCFGFVTYSNVEEADAAMAASPHAVDGNTVELKRAVSREDSARPGAHAKVKKLFVGGLKGDVAEGDLIEHFSQFGTVEKAEIIADKQSGKKRGFGFVYFQNHDAADKAAVVKFHPIQGHRVEVKKAVPKEDIYSGGGGGGSRSSRGGRGGRGRGGGRDQNGLSKGGGGGYNSYGGYGGGGGGGYNAYGGGGGGSSYGGSDYGNGFGGFGSYSQHQSSYGPMKSGGGGGGGGSSWGGRSNSGPYRGGYGGGGGYGGSSF [HNRNPA0]	-0.218	45.2 °C	47 °C	0.24	3.72	12.8
MEPAVSEPMRDQVARTHLTEDTPKVNADIEKVNQNQAKRCTVIGGSGFLGQHMVEQLLARGYAVNVFDIQQGFDNPQVRFFLGDLCSRQDLYPALKGVNTVFHCASPPPSSNNKELFYRVNYIGTKNVIETCKEAGVQKLILTSSASVIFEGVDIKNGTEDLPYAMKPIDYYTETKILQERAVLGANDPEKNFLTTAIRPHGIFGPRDPQLVPILIEAARNGKMKFVIGNGKNLVDFTFVENVVHGHILAAEQLSRDSTLGGKAFHITNDEPIPFWTFLSRILTGLNYEAPKYHIPYWVAYYLALLLSLLVMVISPVIQLQPTFTPMRVALAGTFHYYSCERAKKAMGYQPLVTMDDAMERTVQSFRHLRRVK [NSDHL]	-0.0523	53.1 °C	53 °C	-0.127	1.89	1.38
MEPDIIRMYSSSPPPLDNGAEDDDDDEFGEFGGFSEVSPSGVGFVDFDTPDYTRPKEEFVPSNHFMPIHEFSENVDSLTSFKSIKNGNDKDITAELSAPVKGQSDVLLSTTSKEIISSEMLATSIDGMERPGNLNKVVEQRQNVGTLESFSPGDFRTNMNVVHQNKQLESCNGEKPPCLEILTNGFAVLETVNPQGTDDLDNVADSKGRKPLSTHSTEYNLDSVPSPAEEFADFATFSKKERIQLEEIECAVLNDREALTIRENNKINRVNELNSVKEVALGRSLDNKGDTDGEDQVCVSEISIVTNRGFSVEKQGLPTLQQDEFLQSGVQSKAWSLVDSADNSEAIRREQCKTEEKLDLLTSKCAHLCMDSVKTSDDEVGSPKEESRKFTNFQSPNIDPTEENDLDDSLSVKNGDSSNDFVTCNDINEDDFGDFGDFGSASGSTPPFVTGTQDSMSDATFEESSEHFPHFSEPGDDFGEFGDINAVSCQEETILTKSDLKQTSDNLSEECQLARKSSGTGTEPVAKLKNGQEGEIGHFDSVPNIQDDCNGFQDSDDFADFSSAGPSQVVDWNAFEDEQKDSCSWAAFGDQQATESHHRKEAWQSHRTDENIDTPGTPKTHSVPSATSKGAVASGHLQESATSVQTALLNRLERIFEACFPSILVPDAEEEVTSLKHLLETSTLPIKTREALPESGELLDVWTELQDIHDAHGLRYQWGGSHSNKKLLSSLGIDTRNILFTGNKKQPVIVPMYAAGLGMLEPTKEPLKPLSAAEKIASIGQTATMSPDMNTCTSDQFQESLPPVQFDWSSSGLTNPLDASGGSTLLNLDFFGPVDDSSSSSSTTIPGVDPELYELTTSKLEISTSSLKVTDAFARLMSTVEKTSTSTRKPKREEHLSEEAIKVIAGLPDLTFMHAKVLMFPATLTPSTSSQEKADG [AFTPH]	-0.151	52 °C	51.9 °C	-0.029	-0.487	-1.23
MEPFSCDTFVALPPATVDNRIIFGKNSDRLYDEVQEVVYFPAVVHDNLGERLKCTYIEIDQVPETYAVVLSRPAWLWGAEMGANEHGVCIGNEAVWGREEVCDEEALLGMDLVRLGLERADTAEKALNVIVDLLEKYGQGGNCTEGRMVFSYHNSFLIADRNEAWILETAGKYWAAEKVQEGVRNISNQLSITTKIAREHPDMRNYAKRKGWWDGKKEFDFAAAYSYLDTAKMMTSSGRYCEGYKLLNKHKGNITFETMMEILRDKPSGINMEGEFLTTASMVSILPQDSSLPCIHFFTGTPDPERSVFKPFIFVPHISQLLDTSSPTFELEDLVKKKSHFKPDRRHPLYQKHQQALEVVNNNEEKAKIMLDNMRKLEKELFREMESILQNKHLDVEKIVNLFPQCTKDEIQIYQSNLSVKVSS [SCRN3]	0.271	52.9 °C	52.3 °C	-0.25	-0.926	-0.525
